In PMC6255834, “Single point mutations reveal amino acid residues important for Chromobacterium violaceum transaminase activity in the production of unnatural amino acids” (Scientific Reports, 2018):

Columns and labels:
Test in all cases: purified protein
[1] = substrate: C[C@H](N)c1ccccc1; conditions: amino donor, full reaction with 2.5 mM 2-OOA as acceptor, pH 7, 45 °C
[2] = substrate: COC(=O)CC(C)=O; conditions: amino acceptor, 10 mM 1-PEA as donor, pH 7, 45 °C, highest concentration tested 20 mM
[3] = substrate: CCCCCCC(=O)C(=O)O; conditions: amino acceptor, 10 mM 1-PEA as donor, pH 7, 45 °C

B1: CV_TA (Chromobacterium violaceum DSM30191 transaminase; ω-TA) (Chromobacterium violaceum ATCC 12472) (protein)
chain: MQKQRTTSQWRELDAAHHLHPFTDTASLNQAGARVMTRGEGVYLWDSEGNKIIDGMAGLWCVNVGYGRKDFAEAARRQMEELPFYNTFFKTTHPAVVELSSLLAEVTPAGFDRVFYTNSGSESVDTMIRMVRRYWDVQGKPEKKTLIGRWNGYHGSTIGGASLGGMKYMHEQGDLPIPGMAHIEQPWWYKHGKDMTPDEFGVVAARWLEEKILEIGADKVAAFVGEPIQGAGGVIVPPATYWPEIERICRKYDVLLVADEVICGFGRTGEWFGHQHFGFQPDLFTAAKGLSSGYLPIGAVFVGKRVAEGLIAGGDFNHGFTYSGHPVCAAVAHANVAALRDEGIVQRVKDDIGPYMQKRWRETFSRFEHVDDVRGVGMVQAFTLVKNKAKRELFPDFGEIGTLCRDIFFRNNLIMRACGDHIVSAPPLVMTRAEVDEMLAVAERCLEEFEQTLKARGLA
Km [1]: 2.6 ± 0.63 mM | Km [2]: 18.8 ± 5.0 mM | kcat [2]: 0.155 ± 0.0117 s⁻¹ | kcat/Km [2]: 8.33 M⁻¹ s⁻¹ | Km [3]: 0.4 ± 0.15 mM | kcat [3]: 0.412 ± 0.0733 s⁻¹ | kcat/Km [3]: 1030 M⁻¹ s⁻¹
